The values that follow come from patent publication US20140030278A1.

One may read the IC50 as the concentration that inhibits the measured activity by half.

Experiment [1] has as its target Recombinant human TNF-alpha (human) (UniProt P01375). Kind of experiment: ELISA of unbound rhTNF-alpha after pre-incubation; preparation 1; printed as 7.948e-009 g/ml. The note with it: Fc fusion. In general terms: In an ELISA, binding on a coated surface is turned into a signal by an enzyme label.
The target is the same in experiment [2]. The experiment can be described thus: ELISA of unbound rhTNF-alpha after pre-incubation; preparation 2; printed as 4.220e-009 g/ml. The following applies: Fc fusion.

Recombinant human TNF-alpha (human), sequence (P01375 77-233): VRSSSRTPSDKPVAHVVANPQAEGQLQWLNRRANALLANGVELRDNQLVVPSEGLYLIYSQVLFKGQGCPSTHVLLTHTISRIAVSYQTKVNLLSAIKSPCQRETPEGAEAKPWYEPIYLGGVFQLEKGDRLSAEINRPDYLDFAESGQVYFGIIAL

On to PEG20-etanercept (5 eq), for which the IC50 came to 7.95 ng/mL in experiment [1] and 4.22 ng/mL in experiment [2].
